A protein production outcome set (Wang et al. 2014)

Test: label from the status in PepcDB records

| Sequence | protein production |
| --- | --- |
| MYTRLLVVSLACLLFGVSAFAQPMAPVPDAPLRNAALRMKDKDYRAVRDELRSVPPSPERTFLDGVAARRLEQWPEASELLGVAAKDLPLLADYALFWQAEALMAATRYDEAEEVLQRLVGTWPDSPTLRKARMLLADAQFARKEYRQALASYIRFIELYPSGTDSVTANLKTALCREGLDDPRRAVQELRAIWLAYPASPVAETAEQELKRLEALGFPAVPLTPDELLKRGTTLYNLGKYERALAVFNTIPLKEQLAGFNDRVALKIGETLLKLRRYKDAARTFSSLIEREPKREIADEARFLLARAQNKAGNDDEAFLGFLKLAETAPTSEWADNALLEAAFVRKFQGRYADQLAVLEKLLTTYPGTKLKPRAMWETAWARYNTGDYRSAAESFRLLTASADYRERALYWHGRSLQRIGEETVARQSFAMLAEEYPFSFYTFTATDPAPQEGAIPLIVHDLRQTISPPAGHERARALIAMGLHDQARSELSIARKNGSSRGKGLLGIARLYLEMNDYSSAAAALRGEQPRRMDGETATTWGLLYPRGFSDSVAAEANRHTIPEELIYGLIKAESGFSPVALSPVGAVGLMQLMPSTAKGMVNGSSPANGISARLTDPTFNVGLGVRHLKDLLKQYNGNVVSAVAAYNAGSRPVDRWRRSLAGLREDEFIENIPYYETREYVKKVLTFAEVYRRLYRPAAPALAFLPQVSAPEPPQPAPTNNAPPTAALASPPETSALTAPVRQQP | failed |
| MYVTIVYASVKTDKTEAFKEATRMNHEQSIREPGNMRFDILQSADDPTRFVLYEAYKTRKDAAAHKETAHYLTWRDTVADWMAEPRKGVIYGGLYPTGDD | not failed |
| MYYKFGEIKNKIISFNGFEFKVSAMKKHDGISIQVKDMNNVPLKSFHVVDLSELYIAMDAMRDVINEWIEENTDERDRLINLVMRW | failed |
| NANLDPKTRVLEHRLLAASSAIAEKLGVSAGDEVLLIRRLRSTGDIPVAILENYLPPAFNDVSLDELEKGGLYDALRSRGVVLKIANQKIGARRAVGEESTLLDIEDGGPLLTVERVALDNSGQVIELGSHCYRPDMYNFETTLVAR | not failed |
| NAQARFSQNLLDQGSHPTSEKLLSVLRPASGHVADALGITEGENVIHLRTLRRVNGVALCLIDHYFADLTLWPTLQRFDSGSLHDFLREQTGIALRRSQTRISARRAQAKECQRLEIPNMSPLLCVRTLNHRDGESSPAEYSVSLTRADMIEFTMEH | not failed |
| NCRLFIGGIPKMKKREEILEEIAKVTEGVLDVIVYASAADKMKNRGFAFVEYESHRAAAMARRKLMPGRIQLWGHQIAVDWAEPEIDVDEDVMETV | not failed |
| NDAIPTIFIHGYRGTDRSLHGMIRRFDQKYNWGTESLTVNVSPDGSISTTGTYSKNEKNPLINIVFEDNRATLPQQSMWTKKIMSYLQKNYDIKKFNAIGHSMGGGAWVSYLASYEKNKSYPQVNKIVFLAVPFYPEEYVNGDQQVDIKNANNVHAKFAQKMAKVLPDNTEIMIIGGDLEDGSNSDGEVKLNSVLYGQKLFAHQKVITHVIKGPKATHSSMHESTVVDKYVGQFLWGQK | failed |
| NEHEYAYIMQTSGSTGKPKRIAVSYSNLHCYISQIDKLFPLNAQDRVGQYSDLTFDLSVHDIFYSLISGACLYVVPELAKLSPAEFIHHHQLTVWLSVPTVIELALQRQTLTPHSLPSLRLSFFCGQALLHDLAEQWQQATQQPVINLYGPTECTIAVTYHRFVAHSGMASV | failed |
| NEVDDMDTSDTQWGWFYLAECGKWHMFQPDTNSQCSVSSEDIEKSFKTNPCGSISFTTSKFSYKIDFAEMKQMNLTTGKQRLIKRAPFS | not failed |
| NGGIPHDNLVLIRMKPDENGRFGFNVKGGYDQKMPVIVSRVAPGTPADLCVPRLNEGDQVVLINGRDIAEHTHDQVVLFIKASCERHSGELMLLVRPNAVYDVVEE | not failed |
| NGKIALEEHFATEETLMDSAGFVPDKDWPELRSRLLDIQDRRVRLMDEHGIETMILSLNAPAVQAIADSTRANETARRANDFLAEQVAKQPTRFRGFAALPMQDPELAARELERCVKELGFVGALVNGFSQDNRSAVPLYYDMAQYWPFWETVQALDVPFYLHPRNPLPSDARIYDGHAWLLGPTWAFGQETAVHALRLMGSGLFDKYPALKIILGHMGEGLPYSMWRIDHRNAWIKTTPKYPAKRKIVDYFNENFYLTTSGNFRTQTLIDAILEIGADRILFSTDWPFENIDHAADWFENTSISEADRKKIGWGNAQNLFKLNR | not failed |
| NNELTQFLPRIVTLKKPPGAQLGFNIRGGKASQLGIFISKVIPDSDAHRAGLQEGTXVLAVNDVDFQDIEHSKAVEILKTAREISMRVRFF | not failed |
| NPNPISIPIDLSQAGSVVEKEVKIEESWSYHLILQFAVHDRKEDGGLDGKRVWKFLGFNSYDPRDGKQVGYVDYRLAKSELGDLIDETYDCDGTVVPIKITIHQINQDNTKKLIADNLYMTKGNGSGAYTRDITTISLDKGKYIFRIENIEAFSEMIGRKVDFTIYINKRDK | not failed |
| NSNTLSQIQLNEQSCLSQVVNNLYRLHNSEFVFRNVFSVFDEFRQYFSLLENKSAFYQADSRMDKLSAVFWQFEEINKEVILRPCHNDLVPENMLLQDDRLFFIDWEYSGLNDPLFDIATIIEEAHLSKEAADFLLETYCNQTNKYHKTEFQIAHKRLKIHRFCQNVLWFLWTKVKEEHGENFGDYALKRLDAAFKLLEELP | failed |
| NSSKSLEAELVRDRQELIDARKKELKAYMMMGVTAIKPLYDSDVNGSNKQAAKEILKAMRFESDGYFFAYDSQGINTLHAIKPSLEGKNLYDLKDENGVAVIAGLIDASQKGDGFLYFSWHKPTINAQAPKLGYAEYLQKWDWVLGTGIYIDDIDQQVAMQRELRTQELNQHT | not failed |
| NTKQLRFEDVVNQSSPKNCTVYCGGIASGLTDQLMRQTFSPFGQIMEIRVFPEKGYSFVRFSTHESAAHAIVSVNGTTIEGHVVKCYWGKESPDMT | not failed |
| NTRLRRTKEVNEILGIDPVDKNLLVNQFVKWDPKEDKHIEVSMPKKLEKMADFLGVSVQEVYDEMLSRKRYLELMLKRGIRNYKEVTRYIHAYYRNPELAMTKME | failed |
| PAAEAAPMSLAIHSTTGTRYDLAVPPDETVEGLRKRLSQRLKVPKERLALLHKDTRLSSGKLQEFGVGDGSKLTLVPTVEAGLMSQASRPEQSVMQ | failed |

| Sequence | protein production |
| --- | --- |
| PAMICRYRPDLTLTFGNRPLAAYLECAPEELPGSNLGQWLSAEQREGFERRLKLLSPEYPVSTAEINLQLPGREHAWWVWSDRGVFDEQGQLLEIQAVGRDNTEVRRAQQQLTQSAKMATLGEMATGLAHEINQPLNVMRMAIVNVLKRLGNG | failed |
| PARIDTLEIKLLFAGDIMTHGPQIESAKCEGGRVYDFSSSFDTLASRIGAADLAIGNLETTFAGAPYSGYPTFSSPDAMGEALKNAGFDVLTTANNHTADKGKKGIIRTLDMLDSLGIAHTGSYRDIFDRDKMTPLILEVKGVRIAILAYTYGTNGMPVPAPTWVDPIDTVMIKKDLLRADSLGADYRIVQIHWGIEYRKEPDSEQLELARKLHRYGADAIIGSHPHVV | failed |
| PDADPVEIENRIIELCHQFPHGITDQVIQNEMPHIEAQQRAVAINRLLSMGQLDLLRSNTGLLYRIKD | not failed |
| PDISVAQPASALRYHLRPPRRNDGAAIHQLVSECPPLDLNSLYAYLLLCEHHAHTCVVAESPGGRIDGFVSAYLLPTRPDVLFVWQVAVHSRARGHRLGRAMLGHILERQECRHVRHLETTVGPDNQASRRTFAGLAGERGAHVSEQPFFDRQAFGGADHDDEMLLRIGPFTH | not failed |
| PEKPAKTQKTSLDEALQWRDSLDKLLQNNYGLASFKSFLKSEFSEENLEFWIACEDYKKIKSPAKMAEKAKQIYEEFIQTEAPKEVNIDHFTKDITMKNLVEPSLSSFDMAQKRIHALMEKDSLPRFVRSEFYQELI | not failed |
| PFGSTSGSLFGPSSFTAAPTGTTIKFNPPTGTDTMVKAGVSTNISTKHQCITAMKEYESKSLEELRLEDYQANRKGPQNQVGAGTTTGLFGSSPATSSATGLFSSSTTNSGFAYGQNK | failed |
| PFYTQGDSLTSEDHLDDTWVTVFGFPQASASYILLQFAQYGNILKHVMSNTGNWMHIRYQSKLQARKALSKDGRIFGESIMIGVKPCIDKNVMENSDRGVLSSPSL | not failed |
| PGIERLAEEATASFPEARIAVLSSDMFGTARALKERIEAIAAGEADIVIGTQLVAKGHNFPLLTLVGVIDADLGLQGSDLRAAERTFQLMRQVAGRAGRAEKPGQALLQTYQPE | failed |
| PGKEAQPAENVEFIYENGTWKLSQSWACTLIKNTVAPEQIPAMCADPAAPAPEGQPAPEQAPAPEAPAPEQAPAPEAPAPQ | failed |
| PGLSLRTLDMDRLEEEVRTVRDIYNDAWSDNWGFVPMTEGELQQLADELKQIVDPEIVFFVEHEGTPVGFSVALPDVNQALRHVPDGRLFPYGVPSGLTTLFLHMQYGVHECRMPLMGIRKDYQGKGLDSMLVLATIENGPANGYAACEMSWVLDTNDRLKNHVESLGAVVDKEYAMFETPLSQND | failed |
| PGSFSQEAAEIFGSDLVPVRSISEIFHKISVTGDYGIVPIENSIEGPVNETLDGLFRHEDIYIVDHVEIPIEIFLASNCDTENIRRIYSHPHAIAEAGDYLERTENIEVIRTSSTSEAAKLASMDEAGAALCSMKAAQHYGLANTVKIESKSRNITRFILIGRERN | not failed |
| PGSPPGEGAPLAADVYVGNLPRDARVSDLKRALRELGSVPLRLTWQGPRRRAFLHYPDSAAAQQAVSCLQGLRLGTDTLRVALARQQRDK | not failed |
| PIDLITVGSLIELQDSQNPFQYWIVSVIENVGGRLRLRYVGLEDTESYDQWLFYLDYRLRPVGWCQENKYRMDPPSEIYPLKMASEWKCTLEKSLIDAAKFPLPMEVFKDHADL | not failed |
| PIEGEKVDLRIMSTTDLHTNLVNYDYYQDKESQKIGLAKTAVLIEEAKKENPNTVLVDNGDVIQGTPLGTYKAIVKPVAENEEHPMYQAMNALGYDASTLGNHEFNYGLDYLKKIIATANLPILNANVLDFKTHQPVFKTYDIITKTFKDSTGRAVALNIGITGIVPPQILNWDKANLEGKVIVKDSVKAIEEIVPTMRAKGADVILVLSHSGIGDDRYEEGEENVGYQIASIKGVDAVVTGHSHAEFPSGNGTGFYEKYTGVDGINGKINGTPVTMAGKYGDHLGIIDLGLSYTNGKWQVSESSAKIRKIDMNSTTADERIIALAKEAHDGTINYVRQ | not failed |
| PITDERVYESIGHYGGETVKIVRIEKARDIPLGATVRNEMDSVIISRIVKGGAAEKSGLLHEGDEVLEINGIEIRGKDVNEVFDLLSDMHGTLTFVLIPS | not failed |
| PKATAQMEGRLQEFLTAYAPGARLALADGVLGFIHHQIVELARDCLAKSGENLVTSRYFLEMQEKLERLLQDAHERSDSEEVSFIVQLVRKLLIIISRPAR | not failed |
| PLGLAPTASTTATLAMGDALAVALLIERGFRPEDFALFHPGGSLGKKLLLTVGDLMHSGDAVPLVGSATPIRDALFVITAKGLGITGVCAEDGALVGVVTDGDLRRSLGKGVDILNQPAGEIMTRNPKRINRSELAAKALQVMESHSITSLFVFDDTADNRPVGVIHLHDLLRA | not failed |
| PLKEQKVINTANIKTNSKLDLAEYENGLINIATQQFDTESHVLQLNQYIPEKLIDELVAKVEAPVLTNIIEQDYFGKQNSNELSLSGVMIGLAMSSSVSNEEAMSKGTEVAKQLIEAINKNDKYNKSPITFAIFKQESTSSLKNGTYIASATVQKNDTNLGNWSTIDEKSYSYPSDEFTQAHGEDNTKINNFAKEIKGFSNGDFIPVNAKVSYKKDQMDTLNMNIVIKYNGKTELMALTQLAAQGMLDKLPKDAKVQLQIKSESKIEAVIIKEKNSDKPFV | failed |
